The source of these data is US20140205611A1 (EVEC, published 2014).

The target in assay [1] is T1, recombinant hGM-CSF derived from yeast (Leukine, Berlex) (human, UniProt P04141 18-144).
T1 construct: Bought product; also called yeast hGM-CSF (Leukine); yeast GM-CSF (Leukine)
Kind of assay: SPR (Biacore), antibody captured via immobilised protein G, rhGM-CSF injected. As to the method: To calculate affinity constants for recombinant hGM-CSF binding to anti-hGM-CSF monoclonal antibodies, surface plasmon resonance (SPR) was performed on a Biacore System™ (FIG. 2).
In the method to analyze the interaction between antibodies and antigens, the purified antibodies were captured on a sensor chip via interaction with protein G immobilized to sensor chip surface, and then recombinant antigens were injected to the sensor chip. Purified antibodies were used and recombinant hGM-CSF was used as an antigen.

The target of assay [2] is recombinant hGM-CSF expressed in E. coli (Fa. Biomol #2514) (human, UniProt P04141 18-144). Briefly: cell-based or functional assay.
Chain of recombinant hGM-CSF expressed in E. coli (Fa. Biomol #2514) (P04141 18-144 limits assumed): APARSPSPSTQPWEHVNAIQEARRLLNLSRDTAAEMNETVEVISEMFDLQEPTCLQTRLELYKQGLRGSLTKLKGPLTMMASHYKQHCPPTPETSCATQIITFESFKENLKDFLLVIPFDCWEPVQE

T1 sequence (P04141 other isoform, or with tags, fused parts or gaps limits assumed): as the sequence (P04141 18-144 limits assumed) above, with R23L counted along it

B1: EV1018 (antibody, human IgG1, lambda)
heavy: not shown
light: QSALTQETSVSGTVGQKVTLSCIGNNNNIGSHAVGWYQQISRGAPKMVLFGRSPPSGVPDRFSGSKSGTTASLIISGLQPEDEADYYCSTWDSSLSAVVFGGGTKLTVLRQPKAAPSVTLFPPSSEELQANKATLVCLISDFYPGAVTVAWKADSSPVKAGVETTTPSKQSNNKYAASSYLSLTPEQWKSHRSYSCQVTHEGSTVEKTVAPTECS
notes: also called wild-type EV1018; WT EV1018
Regarding B1, in assay [1], the Kd came to 0.23 nM. Further, in assay [2], the “IC50 in TF-1 assay, hGM-CSF (E. coli) at 1.0 ng/ml final concentration” value was found to be 0.02 nM and the “Ratio: Reference antibody to antibody of interest (IC50 of BVD2-21C11 over IC50 of EV1018, TF-1 assay)” value was 413.

B2: EV1019 (antibody, human IgG1, lambda, V domains shown)
VH: QAQLVESGGGVVKPGGSLRLSCISSKFTFSSHAMHWVRQAPGKGLEWVAVIWHDGSKKYYADSVKGRFSVSRDNSKNTLFLQMDSLRAEDTAVYFCGKEWVGGTCDSWGQGTLVIVSS
VL: QPALTQEASVSGTVGQTVTLLCSGNSSNIGSYAVGWYQQISRGAPKIVVFGKSPASGIPDRFSGSKSGTTASLLVSGLQPEDEADYYCSTWDSRLSAVLFGGGTKLTVLR
notes: also called EV1019 Batch 1; EV1019 Batch 2
With B2, the Kd in assay [1] stood at 0.36 nM.
